# The DeepSol protein solubility set
# Test: soluble on expression in E. coli; label from the status in PepcDB or PDB records
row,Sequence,soluble on expression in E. coli
1,MAMAVPVSARPQSPAEGFYAINNQFQTNGPKGFSEIKILANEDMFLRMDLPGVPDEGGLSVYHNRSQETVVVFAKAPKVHTHDSTERRYQTMTGIGCSCCAISSITTHMSDGVFRVILSKTRIDPHRSPCTDPALTGPVLQPHPLAFPQPTMAYESKQLPNGKLFVRADMPGVPKENFTVSVTNGRVKVTGQAPAVSHDSSGRFYSGDVAMLSTPVDIPSRRIKTIAKNGVIRLLIPPF,soluble
2,VQRCVIIQKDQHGFGFTVSGDRIVLVQSVRPGGAAMKAGVKEGDRIIKVNGTMVTNSSHLEVVKLIKSGAYVALTLLGSS,soluble
3,MTENILRKSDEEIQKEITARVKALESMLIEQGILTTSMIDRMAEIYENEVGPHLGAKVVVKAWTDPEFKKRLLADGTEACKELGIGGLQGEDMMWVENTDEVHHVVVCTLCSCYPWPVLGLPPNWFKEPQYRSRVVREPRQLLKEEFGFEVPPSKEIKVWDSSSEMRFVVLPQRPAGTDGWSEEELATLVTRESMIGVEPAKAV,soluble
4,MEYNLDLARAFLQKHRIAVVEPNPPYLQFSEAQLAQQKAKLAKNLQISTACKWLFVHASTGGSATSLSIEQYAQMLNGIASETNCEIVLTAGKGESEKAYQLAAQITATKAVVYDKNDGLQDFARSIACADLFIAGSTGPLHIAGALNVATIGFYPSRLSALPRRWRPINEEGKHLEHHHHHH,not soluble
5,MGSDKIHHHHHHMLDRKLLESLGGWQGYGVERVEWPEDPGRTLSIYLKPTAKVMLCEQCGARCRQVHETTVRRVRDLPLFEYRVVLHVPRRRLWCEQCGGPRLERLAWLGRYQRVTDRLAQACSQLLQSSNVQAVARFFELGWHTVKTLDKARLRASVREPDWSKIEYLAMDEFALHKGHRYATVVVDPIGRQVLWIGPGRSRETARAFFEQLPPGAAQRIKAVAIDMTTAYELEIQAHSPQAEIVYDLFHVVAKYGREVIDRVRVDQANQLRQDRPARRIIKSSRWLLLRNRDNLDRQQAVRLDELLQANQPLLTVYVLRDELKRLWFYQRPAWARQAWNHWYEQAEQSGIAALNTFAQRLKGYLHGILARCRHPLNTSIVEGINNTIKVIKRRAYGYRDQEYFFLKIRAAFPGNAR,not soluble
6,MPVLYKPFQSNLEDKKSGKKLFYPHVVRTGNINSAQLSKEIAAYSSLSPGDVKNTLDNLVTVMAQHLQSSESVSVDGLGTFRMVMSARGRGVETADEVSAAQATLTVRFQPTTTKNLDRTTATRSMVTGAKCARYDKLVSAPGDGGSVDDPNDKPGGGSDGGDDGEAPDPTV,not soluble
7,MGSDKIHHHHHHMRLPPLKALPVFEAAARLNSFSAASEELAITQSAVSHQIKQLETYLGERLFWRSGRRVTLTDEGRQYFDAIGSALLQIERASEQLLGHEESRLRLSVFSSFAVRWLVPRLPDLQRLHPQIDLALEMSSENPVLSDRVADCFITIHRDSRAYSYDLLYEERLFPVCSQDYWQRMRRELGRDVEPERRDEQPVSPGEMAGFPLLSTHSIFDRPAGDWEAWYSAAGELMPTGTRVQHFSHMLLALEAARFHQGIALTNDYMLSTRKDSEDFVRLPTHSVVTGDKFYFAWKTSRRRERGIQTLRRWLVDEAIRGGLRGE,not soluble
8,MGSDKIHHHHHHMAGPGCMLMFNRAAKDDATPRMRAGVAVNTGHSLAYQHVIEPSAGYQAKLEAELNPENGRRLSASLIAQILNLGSTSDPDIPAASQLAMAILKTIEAFQISREREPGPEHAPLDVLPLALRSPDADERAHEVCQRIAEHARALWQRMINERSGIPITHDTYLKILQLREPYFSFDFWILDEYQDTTPVVDELVNQQEGQKLYIGDPYQAIYSWRGAINALAGPIDRGLPVHYLTDSFRYNHQIAGMATLILRALGEPVPVRGQPRNFIHRRADDNHTIICRTNLSILVRAGELIVRGSPVFVDGGIPKSTYQRIESALALFQGRPNDVRISTLRQMGSWTAFVDYARGLGERADDMMNLIALVEQYQSQLPVLIDTLKRRLPYRNPRKPGQTTLITAHRSKGRQFAHVELDPDIGLPGDLMIKIQNQAPLQPKERESLHLLYVALTRAELSLELPKRIKENLKLLHGWFNRGTDTAETFTAKTTIPLPKAHAQTAQRARTEAFIRAHRRTD,not soluble
9,MSSNYVMATKEGQMLLTQGKPMLDKDTGLLSYTDEQGNQKQINSDQVSQIVQRLEHHHHHH,not soluble
